According to EP1918299A1 (UNIVERSITE DE GENEVE, dated 2008):

T1: myc-tagged version of Necl-3 (pNecl-3-myc) (human, UniProt Q8N3J6 25-435)
T1 construct: On S2 cells in the aggregation assay; not shown: C-terminal myc-His tag of vector pcDNA3.1/myc-His
T1 sequence: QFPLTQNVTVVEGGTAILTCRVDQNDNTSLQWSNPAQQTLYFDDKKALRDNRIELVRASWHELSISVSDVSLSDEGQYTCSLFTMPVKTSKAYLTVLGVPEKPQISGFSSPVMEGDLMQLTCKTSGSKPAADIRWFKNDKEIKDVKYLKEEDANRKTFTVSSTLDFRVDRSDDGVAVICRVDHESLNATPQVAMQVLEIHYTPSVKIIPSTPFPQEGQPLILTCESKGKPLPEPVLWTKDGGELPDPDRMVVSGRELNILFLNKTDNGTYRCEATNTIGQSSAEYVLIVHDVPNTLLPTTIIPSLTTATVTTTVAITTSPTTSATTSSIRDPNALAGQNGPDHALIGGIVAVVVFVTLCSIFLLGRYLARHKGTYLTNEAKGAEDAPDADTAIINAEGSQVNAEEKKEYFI

T2: Necl-1-GFP (human Necl-1 fused to GFP at its carboxy-terminus) (human, UniProt Q8N126 25-398)
T2 construct: Expressed in S2 cells; In lysate in the western blot; also called pMT-Necl-1-GFP; not shown: GFP of vector pEGFP-N1 (BD Biosciences Clontech), C-terminal fusion
T2 sequence: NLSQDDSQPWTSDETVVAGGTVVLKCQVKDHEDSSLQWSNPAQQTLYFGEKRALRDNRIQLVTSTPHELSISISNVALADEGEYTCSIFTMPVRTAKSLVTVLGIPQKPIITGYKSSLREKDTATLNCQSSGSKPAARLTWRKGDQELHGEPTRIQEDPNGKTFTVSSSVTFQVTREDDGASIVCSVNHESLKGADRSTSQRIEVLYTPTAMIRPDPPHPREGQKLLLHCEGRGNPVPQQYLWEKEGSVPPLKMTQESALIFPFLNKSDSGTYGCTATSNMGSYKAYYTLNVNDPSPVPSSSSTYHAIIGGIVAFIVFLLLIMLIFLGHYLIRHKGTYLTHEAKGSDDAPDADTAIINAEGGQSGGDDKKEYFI

B1: Necl-3-GFP (human Necl-3 fused to GFP at its carboxy-terminus) (other)
chain: T1 sequence
notes: Expressed in Drosophila S2 cells; on cells in the aggregation assays, in crude cell lysate in the western blot; also called pMT-Necl-3-GFP; not shown: GFP of vector pEGFP-N1 (BD Biosciences Clontech), C-terminal fusion
B2: Necl-2-GFP (human Necl-2 fused to GFP at its carboxy-terminus) (other)
chain: QNLFTKDVTVIEGEVATISCQVNKSDDSVIQLLNPNRQTIYFRDFRPLKDSRFQLLNFSSSELKVSLTNVSISDEGRYFCQLYTDPPQESYTTITVLVPPRNLMIDIQKDTAVEGEEIEVNCTAMASKPATTIRWFKGNTELKGKSEVEEWSDMYTVTSQLMLKVHKEDDGVPVICQVEHPAVTGNLQTQRYLEVQYKPQVHIQMTYPLQGLTREGDALELTCEAIGKPQPVMVTWVRVDDEMPQHAVLSGPNLFINNLNKTDNGTYRCEASNIVGKAHSDYMLYVYDPPTTIPPPTTTTTTTTTTTTTILTIITDSRAGEEGSIRAVDHAVIGGVVAVVVFAMLCLLIILGRYFARHKGTYFTHEAKGADDAADADTAIINAEGGQNNSEEKKEYFI
notes: Expressed in S2 cells; on cells in aggregation assays, in cell lysate in the western blot and the pull-down; also called pMT-Necl-2-GFP; not shown: GFP of vector pEGFP-N1 (BD Biosciences Clontech), C-terminal fusion
B3: Necl-1-DsRed2 (human Necl-1 fused to DsRed2) (other)
chain: T2 sequence
notes: On S2 cells; also called pMT-Necl-1-DsRed2; not shown: DsRed2 (Discosoma Red) of vector pDsRed2-N1 (BD Biosciences Clontech), C-terminal fusion
B4: Necl-4-DsRed2 (human Necl-4 fused to DsRed2) (other)
chain: QEVQTENVTVAEGGVAEITCRLHQYDGSIVVIQNPARQTLFFNGTRALKDERFQLEEFSPRRVRIRLSDARLEDEGGYFCQLYTEDTHHQIATLTVLVAPENPVVEVREQAVEGGEVELSCLVPRSRPAATLRWYRDRKELKGVSSSQENGKVWSVASTVRFRVDRKDDGGIIICEAQNQALPSGHSKQTQYVLDVQYSPTARIHASQAVVREGDTLVLTCAVTGNPRPNQIRWNRGNESLPERAEAVGETLTLPGLVSADNGTYTCEASNKHGHARALYVLVVYDPGAVVEAQTSVPYAIVGGILALLVFLIICVLVGMVWCSVRQKGSYLTHEASGLDEQGEAREAFLNGSDGHKRKEEFFI
notes: On S2 cells; also called pMT-Necl-4-DsRed2; not shown: DsRed2 (Discosoma Red) of pMT-DsRed2, C-terminal fusion
B5: Necl-4-GFP (human Necl-4 fused to GFP at its carboxy-terminus) (other)
chain: B4 chain
notes: In lysate in the western blot; also called pMT-Necl-4-GFP; not shown: GFP of vector pEGFP-N1 (via pMT-GFP), C-terminal fusion

Tests used:
Experiment in all cases: S2 cell aggregation assay
[1] = biological target: the molecule itself
[2] = biological target: T1, myc-tagged version of Necl-3 …
[3] = biological target: B1
[4] = biological target: B2
[5] = biological target: T2, Necl-1-GFP (human Necl-1 fused to GFP …)

binding result [3] | Binder | binding result [1] | other results
– | B1 | binds | –
– | B2 | – | binding result [2]: binds
binds | B3 | – | –
binds | B4 | – | binding result [4]: binds; binding result [5]: binds
– | B5 | binds | –
